From PMC9677429, “The Role of Electrostatic Interactions in IFIT5-RNA Complexes Predicted by the UBDB+EPMM Method”
Numbering of substitutions follows the chain as printed. Several values for one entry are separate records, joined by “and”; a condition that tells them apart may be missing. Equal values may be shown once.

How the values were obtained:
Details in all cases: protein: recombinant; tags: N-terminal His tag (pETG10a); label: 3'-Cy5; single strand, 12 nt
[1] = target: T1, IFIT5 WT (UniProt Q13325 1-482); assay: MST; apparent, single replicate; no Mg2+ (assignment by word order); MST: PBS, 5% glycerol, 0.5 mM TCEP, 0.05% Tween20, +/-1 mM MgCl2 (K150M always with 1 mM MgCl2), 10 nM Cy5-RNA, 22 C, 10 min incubation; pH not stated
T1 sequence: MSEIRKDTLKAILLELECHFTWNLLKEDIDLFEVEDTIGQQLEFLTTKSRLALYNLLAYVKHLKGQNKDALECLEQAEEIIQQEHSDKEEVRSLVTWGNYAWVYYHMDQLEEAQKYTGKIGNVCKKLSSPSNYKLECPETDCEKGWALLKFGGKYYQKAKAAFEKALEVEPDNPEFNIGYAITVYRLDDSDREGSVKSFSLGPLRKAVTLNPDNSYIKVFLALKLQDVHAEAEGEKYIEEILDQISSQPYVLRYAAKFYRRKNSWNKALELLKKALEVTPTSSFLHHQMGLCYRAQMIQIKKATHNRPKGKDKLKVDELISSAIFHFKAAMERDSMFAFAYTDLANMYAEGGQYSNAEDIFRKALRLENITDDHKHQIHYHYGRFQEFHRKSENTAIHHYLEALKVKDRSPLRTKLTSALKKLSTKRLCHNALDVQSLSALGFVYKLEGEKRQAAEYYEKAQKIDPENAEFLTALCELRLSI

[2] = target: T2, IFIT5 Q41E/K150M/R253M (UniProt Q13325 1-482, Q41E;K150M;R253M); assay: as above
T2 sequence: T1 sequence with Q41E, K150M, R253M

[3] = target: T1, IFIT5 WT; assay: MST; apparent; replicates with and without 1 mM Mg2+ pooled; MST: PBS, 5% glycerol, 0.5 mM TCEP, 0.05% Tween20, +/-1 mM MgCl2 (K150M always with 1 mM MgCl2), 10 nM Cy5-RNA, 22 C, 10 min incubation; pH not stated
[4] = target: T2, IFIT5 Q41E/K150M/R253M; assay: as above
[5] = target: T1, IFIT5 WT; assay: MST; apparent, single replicate; 1 mM Mg2+ (assignment by word order); MST: PBS, 5% glycerol, 0.5 mM TCEP, 0.05% Tween20, +/-1 mM MgCl2 (K150M always with 1 mM MgCl2), 10 nM Cy5-RNA, 22 C, 10 min incubation; pH not stated
[6] = target: T2, IFIT5 Q41E/K150M/R253M; assay: as above
[7] = target: T3, IFIT5 K150M (UniProt Q13325 1-482, K150M); assay: MST; apparent; 1 mM Mg2+; MST: PBS, 5% glycerol, 0.5 mM TCEP, 0.05% Tween20, +/-1 mM MgCl2 (K150M always with 1 mM MgCl2), 10 nM Cy5-RNA, 22 C, 10 min incubation; pH not stated
T3 sequence: T1 sequence with K150M

Binder AAAAAGGAAGGU (ssRNA, 5'-triphosphate) [5'-ppp-AAAAAGGAAGGU-Cy5] has a Kd [1] of 8.87 nM, a Kd [2] of 1700 nM and a Kd [3] of 13.4 nM. The Kd [4] was 1980 nM, the Kd [5] was 12.7 nM and 13.7 nM and 23 nM and the Kd [6] was 2340 nM. For the same binder, the Kd [7] was 204 nM.
